Reference: article PMC11233879, “JrPHL8-JrWRKY4-JrSTH2L module regulates resistance to Colletotrichum gloeosporioides in walnut”

B1: proJrWRKY4-MBS (dsDNA)
DNA 1: TTCACTATTACTGATATTCTCAACAGAAAAATGTCTAAGAGACAAT
DNA 2: ATTGTCTCTTAGACATTTTTCTGTTGAGAATATCAGTAATAGTGAA
B2: proJrSTH2L-Wbox (dsDNA)
DNA 1: AACCTAAACCCTTTGTGAAGTTGACCAGATCCTCAACCCGGGATGG
DNA 2: CCATCCCGGGTTGAGGATCTGGTCAACTTCACAAAGGGTTTAGGTT

Key:
JrPHL8 = target: T1, JrPHL8 (walnut (Juglans)?, UniProt A0A2I4DJV4 1-356); experiment: EMSA; LightShift Chemiluminescent EMSA Kit (Beyotime); cold probe 100-fold; buffer, salt, pH and temperature not stated; settings: protein: recombinant; tags: His (pET32a fusion); chain copies: 2; label: biotin; blunt
T1 sequence: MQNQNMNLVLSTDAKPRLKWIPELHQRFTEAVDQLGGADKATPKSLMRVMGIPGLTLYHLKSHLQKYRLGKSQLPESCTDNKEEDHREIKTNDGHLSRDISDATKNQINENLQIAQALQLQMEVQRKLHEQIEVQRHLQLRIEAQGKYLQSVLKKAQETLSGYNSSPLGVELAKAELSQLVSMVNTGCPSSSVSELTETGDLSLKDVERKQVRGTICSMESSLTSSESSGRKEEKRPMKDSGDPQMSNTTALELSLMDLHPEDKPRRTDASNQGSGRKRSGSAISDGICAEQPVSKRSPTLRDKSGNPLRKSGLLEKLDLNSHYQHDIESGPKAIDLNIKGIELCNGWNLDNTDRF

JrWRKY4 = JrWRKY4 (walnut (Juglans)?, UniProt A0A2I4E3K4 1-517); experiment: as above; settings: protein: recombinant; tags: pET32a fusion (Trx-His; article states His-tagged); label: biotin; blunt
Sequence of JrWRKY4 (A0A2I4E3K4 entry or part of it): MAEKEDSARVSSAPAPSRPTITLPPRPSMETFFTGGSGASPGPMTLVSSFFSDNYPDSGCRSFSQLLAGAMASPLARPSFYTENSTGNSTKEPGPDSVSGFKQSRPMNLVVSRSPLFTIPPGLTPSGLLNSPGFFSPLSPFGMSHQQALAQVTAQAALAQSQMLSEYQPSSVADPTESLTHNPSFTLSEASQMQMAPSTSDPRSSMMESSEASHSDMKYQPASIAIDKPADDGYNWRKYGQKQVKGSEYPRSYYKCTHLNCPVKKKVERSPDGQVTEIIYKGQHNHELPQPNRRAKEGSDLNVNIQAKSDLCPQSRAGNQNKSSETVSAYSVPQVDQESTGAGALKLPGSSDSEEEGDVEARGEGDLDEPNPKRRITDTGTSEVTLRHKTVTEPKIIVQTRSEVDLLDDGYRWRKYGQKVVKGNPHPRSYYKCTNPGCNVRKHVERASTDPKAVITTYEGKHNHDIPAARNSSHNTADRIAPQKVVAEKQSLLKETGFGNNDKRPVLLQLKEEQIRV

Binder | binding result (JrPHL8) | binding result (JrWRKY4)
B1 | binds | –
B2 | – | binds
